{
  "source": "IntAct's records for PubMed 22632831",
  "parents": {"B1": {"name": "Transcription cofactor vestigial-like protein 1 (Mus musculus), Q99NC0 (parent)", "chain": "MEEMKKNGVWIPESSQKPVKTEWNAGSVIFTYFEGDINSMVDEHFSRALRNLKRPHKCSSSSHSDNLTLKNGVNKTRTDTSHTDRERKVESSQTENSGELKDVPVEEKGTNKSMPPNQRHLSSWTIAQPAASPENGARSSSLDEYGLKAMDQHSLSMPKTPSALPLEPWHFSSLARPGFIAPAYFPVFPDRHLTPEVYRVFPDRHLTPEVYHVFPDRHLTPEVYPDGRCGPLQHLVQQDRYQNHPLEPAARENCSPAKIAGSTGSLMNLPPYPVHYKKKICARGAASASLDDERSPSPKRRRDAYYY"}},
  "data": [
    {"variants_of": "B1", "details": "with Tead4, Q62296-1", "values": [
      {"variant": "H44A;F45A", "effect of a mutation on the interaction": "decreasing interaction strength"}
    ]}
  ]
}
